Source: the RNAGym collection of RNA variant scans (doi:10.1073/pnas.2313332121)

B1: TPR t1 (parent)
chain: GACCAAUCUGCCCUCAGAGCUCGAGAACAUCUUCGGAUGCAGAGGAGGCAGGCUUCGGUGGCGCGAUAGCGCCAACGUCCUCAACCUCCAAUGCAUCCCACCACAUGAUGAUGCCUGAAGAGCCUUGGUUUUUUG

Variants of: B1
Assay: polymerase ribozyme fitness, log enrichment relative to wild type (log ratio); higher = more active; in vitro selection for triplet polymerase activity
Method in brief: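 In triplicate, a single round of in vitro selection was run on each mutant library, PCR-built and transcribed, covering one subunit of a heterodimeric triplet polymerase ribozyme. Frozen incubation at −7 °C followed annealing with a biotinylated primer, partner subunit and triplets, and extended constructs were then gel-excised, streptavidin-captured and taken through RT-PCR. Fitness is the logarithm of genotype enrichment over wild-type enrichment, from inverse-variance-weighted replicate averages of Illumina-sequenced inputs and outputs. […] only genotypes with ≥10 input reads and ≥1 read per output were kept.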

Going from C20U A27G C72A C82U A84G U116C to G19C C70U, the “polymerase ribozyme fitness (log ratio)” value rises from -7.5 to -2.55.

Going from C20G U38G C76G to G19C C20A, the “polymerase ribozyme fitness (log ratio)” value falls from -5.6 to -6.28.

Going from G19A G69A to G19A G69U, the “polymerase ribozyme fitness (log ratio)” value rises from -4.57 to -1.71.

First: G19A G63A A111G
Second: G19U C123A
The “polymerase ribozyme fitness (log ratio)” value of the first is higher: -1.39 for the first, -2.59 for the second.

Compared with C20A A46U C72G, C20U G42U C73U is higher in “polymerase ribozyme fitness (log ratio)” value: -4.27 for the first, -2.41 for the second.

First: A18U G42U G69A A100U C114A G128U
Second: C20U U81C
The “polymerase ribozyme fitness (log ratio)” value of the first is lower: -7.14 for the first, -1.54 for the second.

Compared with C20A G36U G77U U116C, A18U A74U is higher in “polymerase ribozyme fitness (log ratio)” value: -5.13 for the first, -3.3 for the second.

Compared with A18U C70U U112C, A18U U92G is lower in “polymerase ribozyme fitness (log ratio)” value: -1.2 for the first, -3.54 for the second.

Going from A18U C73G A100U G113A G128A to A18U A66C, the “polymerase ribozyme fitness (log ratio)” value rises from -5.47 to -4.55.

Compared with G19A C124A U129C, C20G U55C G57A A90G is lower in “polymerase ribozyme fitness (log ratio)” value: -2.22 for the first, -5.05 for the second.

Going from C20G C40A A66G G71A G93U U112C to G19A U54C C73G C82G C114G, the “polymerase ribozyme fitness (log ratio)” value rises from -6.06 to -4.42.

Compared with U21A A27C U32G G71A U112C, G19C C72A C124A U129G is higher in “polymerase ribozyme fitness (log ratio)” value: -5.9 for the first, -0.719 for the second.

Compared with A18U A50U C99G A100C A108U C124G, G19A U96A C114A G127U is higher in “polymerase ribozyme fitness (log ratio)” value: -8.04 for the first, -3.48 for the second.

Going from C20A C28G C70G A83U C99U G113U to A18U G120A, the “polymerase ribozyme fitness (log ratio)” value rises from -6.88 to -1.14.

Going from G19A A29C U109A G120C to A18U C72G U130A, the “polymerase ribozyme fitness (log ratio)” value rises from -5.43 to -4.54.

Going from U21A A27C U78G A84U C114A to C20G C53G C72U, the “polymerase ribozyme fitness (log ratio)” value rises from -6.87 to -3.94.

Going from U21C A27U G36C A111U to G19C A84G, the “polymerase ribozyme fitness (log ratio)” value rises from -4.98 to -3.14.

G19C G71U G120U G122A C123U and G19A C56U C115A are within 0.2 log units of each other in “polymerase ribozyme fitness (log ratio)” value: -3.78 for the first, -3.68 for the second.

First: C20A G51C C56A C79U U106A A121U
Second: C20U G113C
The “polymerase ribozyme fitness (log ratio)” value of the first is lower: -7.26 for the first, -2.2 for the second.

Compared with C20U G113A, U21C A74U G120A is lower in “polymerase ribozyme fitness (log ratio)” value: 1.4 for the first, -0.17 for the second.

Compared with A18U G39U G61U C97U U130A, C20U G69U is higher in “polymerase ribozyme fitness (log ratio)” value: -4.49 for the first, -0.346 for the second.

Compared with C20A A84G C86A G128U U130C, U21A C72G A75U C85U is higher in “polymerase ribozyme fitness (log ratio)” value: -3.64 for the first, -1.63 for the second.

First: G19C A37U C124U
Second: C20A C88G
The “polymerase ribozyme fitness (log ratio)” value of the first is higher: -1.48 for the first, -3.11 for the second.

Going from G19C G36C G71U U112G U116C to G19U G48U C79A C85A G120C U130C, the “polymerase ribozyme fitness (log ratio)” value falls from -3.91 to -5.41.

Compared with C20A C115U, G19C G63C is higher in “polymerase ribozyme fitness (log ratio)” value: -3.52 for the first, -2.72 for the second.

Going from G19U U54G C56U C123G to U21C A37G C62A G117A, the “polymerase ribozyme fitness (log ratio)” value rises from -6.86 to -3.01.

Going from G19C C40A C85U U112A to G19A C53U, the “polymerase ribozyme fitness (log ratio)” value falls from -2.1 to -2.82.

Compared with U21A C53G C64U U106C, G19C G42C C124G is higher in “polymerase ribozyme fitness (log ratio)” value: -0.936 for the first, -0.406 for the second.

Compared with C20A A29U C62U A119U U129G, A18U G45C G57C G69U is higher in “polymerase ribozyme fitness (log ratio)” value: -4.53 for the first, -1.15 for the second.

Compared with A18U G57U A100C G120C, C20A A84C C88A U92G C114A is higher in “polymerase ribozyme fitness (log ratio)” value: -5.42 for the first, -4.5 for the second.

First: U21A G39U
Second: G19A C62A C82A G93U U112A
The “polymerase ribozyme fitness (log ratio)” value of the first is higher: -1.5 for the first, -2.13 for the second.

First: C20G A83C A100U G120A U130C
Second: C20G U78C U109G
The “polymerase ribozyme fitness (log ratio)” value of the first is lower: -5.79 for the first, -3.79 for the second.

Going from U21A C53G U54G U87A to G19A C53A C101U, the “polymerase ribozyme fitness (log ratio)” value rises from -4.55 to -2.73.

Compared with A18U A68G U81A C123U, C20A A66G is higher in “polymerase ribozyme fitness (log ratio)” value: -5.83 for the first, -4.25 for the second.

Compared with C20G A26G C64A C70U U78C U112A, C20A C89A is higher in “polymerase ribozyme fitness (log ratio)” value: -5.93 for the first, -3.94 for the second.

First: G19A U78C C124A U129C
Second: C20U G44U
The “polymerase ribozyme fitness (log ratio)” value of the first is higher: -1.77 for the first, -2.46 for the second.

U21A C40G U125A and G19A C56G U106A G113C are within 0.2 log units of each other in “polymerase ribozyme fitness (log ratio)” value: -1.07 for the first, -1.09 for the second.

First: A18U C76A G93C
Second: C20U G71A
The “polymerase ribozyme fitness (log ratio)” value of the first is lower: -4.09 for the first, -1.94 for the second.

Going from G19U A46C to G19U A41U G71A, the “polymerase ribozyme fitness (log ratio)” value falls from -3.44 to -5.44.

Compared with C20A C34A A41C U109A, U21A G39U C62A is higher in “polymerase ribozyme fitness (log ratio)” value: -4.4 for the first, -2.62 for the second.

Compared with G19A U32A A84U, C20U U30A G39C C53U C56U G60C U92C G117U A119G is lower in “polymerase ribozyme fitness (log ratio)” value: -6.42 for the first, -6.79 for the second.

Compared with C20U G69C C94U, G19A U38C G63U C114A A121G is lower in “polymerase ribozyme fitness (log ratio)” value: -2.8 for the first, -4.24 for the second.
